This is an account of results in patent US20250361295A1 (ANTENGENE BIOLOGICS, published 2025).

Experiment [1] concerns the target T1, human LILRA6 protein (human, UniProt Q6PI73 24-447, limits assumed).
T1 construct: protein for ELISA; construct not described; also called hLILRA6 protein
Nature of the experiment: ELISA, LILRA6 protein.

Experiment [2] addresses T2, human LILRB4 (human, UniProt Q8NHJ6 22-448). In words: cell-based or functional assay.
The target of experiment [3] is T2, human LILRB4. In words: cell-based or functional assay. The source holds these as a separate data set.
Experiment [4] has as its target T2, human LILRB4. In words: cell-based or functional assay. The source holds these as a separate data set.
Experiment [5] deals with T3, human LILRB3 (human, UniProt O75022 24-631).
T3 construct: whole, on cells; also called hLILRB3
T3 sequence (O75022 24-631): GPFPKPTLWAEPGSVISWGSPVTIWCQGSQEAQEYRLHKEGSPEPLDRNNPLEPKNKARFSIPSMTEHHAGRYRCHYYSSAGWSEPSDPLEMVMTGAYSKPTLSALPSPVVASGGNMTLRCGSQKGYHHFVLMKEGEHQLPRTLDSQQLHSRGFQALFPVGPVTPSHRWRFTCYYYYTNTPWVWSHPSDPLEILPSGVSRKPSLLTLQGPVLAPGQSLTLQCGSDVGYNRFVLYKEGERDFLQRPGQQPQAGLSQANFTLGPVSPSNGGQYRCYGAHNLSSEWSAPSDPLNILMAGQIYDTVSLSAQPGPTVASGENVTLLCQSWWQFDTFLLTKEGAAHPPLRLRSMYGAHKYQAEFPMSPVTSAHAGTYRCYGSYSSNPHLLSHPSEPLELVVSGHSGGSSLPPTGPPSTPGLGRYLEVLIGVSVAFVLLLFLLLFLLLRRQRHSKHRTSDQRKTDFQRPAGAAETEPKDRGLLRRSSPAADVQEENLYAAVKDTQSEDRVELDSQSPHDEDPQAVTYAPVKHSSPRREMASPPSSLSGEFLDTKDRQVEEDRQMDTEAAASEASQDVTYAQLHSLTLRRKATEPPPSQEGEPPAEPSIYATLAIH
Nature of the experiment: FACS, 293F-hLILRB3 cells. Put shortly:
(§1)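 Cells expressing the target (2×10⁵/well) were incubated with antibody for 1 h at 4 °C, washed, and stained with secondary antibody for 1 h at 4 °C in the dark. Binding was read by flow cytometry.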

The target in experiment [6] is T2, human LILRB4. In words: FACS, 293F-hLILRB4 cells. Put shortly:
as §1

Experiment [7] has as its target T4, cynomolgus (Macaca fascicularis) LILRB4 (cynomolgus (Macaca fascicularis)).
T4 construct: whole, on cells; also called cynoLILRB4; CHO-S-cynoLILRB4
In words: FACS, CHO-S-cynoLILRB4 cells. The method, then: The protocol for FACS analysis is described as follows: [0438] (a) Cells were harvested by centrifugation at 300 g for 3 mins. […] (b) The cells were washed for 2 times with FACS buffer by centrifuging at 300 g for 3 mins and the supernatant was discarded. [0440] (c) Cell were resuspended and seeded into assay plate (2×10⁵ cells/well) in 50 μl FACS buffer. […] Cells were incubated with antibodies at 4° C. for 1 hour. […] (d) Step (b) was repeated and the cells were resuspended with 100 μl diluted 2nd antibody, incubated at 4° C. for 1 hour in the dark. [0442] (e) Step (b) was repeated and the cells were resuspended with 100 μl FACS buffer. The cells were kept in dark for FACS analysis.

For experiment [8], the target named is T2, human LILRB4. Nature of the experiment: ELISA and FACS on 293F-hLILRB4 cells.

T1 sequence (Q6PI73 24-447 limits assumed): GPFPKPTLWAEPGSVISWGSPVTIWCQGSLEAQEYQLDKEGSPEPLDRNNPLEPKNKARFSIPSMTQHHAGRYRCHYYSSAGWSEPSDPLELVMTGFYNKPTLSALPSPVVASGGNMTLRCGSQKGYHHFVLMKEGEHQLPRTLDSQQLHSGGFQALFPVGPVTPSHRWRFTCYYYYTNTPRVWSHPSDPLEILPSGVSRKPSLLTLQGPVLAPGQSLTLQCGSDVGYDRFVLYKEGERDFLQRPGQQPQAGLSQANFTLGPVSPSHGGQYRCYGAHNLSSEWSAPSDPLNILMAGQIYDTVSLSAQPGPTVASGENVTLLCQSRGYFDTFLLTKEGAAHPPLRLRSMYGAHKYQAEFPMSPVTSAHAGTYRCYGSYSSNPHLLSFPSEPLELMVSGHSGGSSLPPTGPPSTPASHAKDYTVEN

B1: ch44-F10-B6-D4 (antibody, V domains shown)
VH: EVHLVESGGGLVKPGGSLKLSCAASGFTFSSYAMSWVRQTPEKRLEWVATISSGGSYIYYPDSVKGRFTISRDNAKNTLYLQMSSLRSEDTAMYYCARQDWDGGDYYAMDYWGQGTSVTVSS
VL: DIVMTQSPSSLAVSAGEKVTMSCKSSQSVLYSSNQKNFLAWYQQKPGQSPKLLIYWASTRESGVPDRFTGSGSGTDFTLTISSVQAEDLAVYYCHQYLSSLTFGAGTKLELK
Consider B1, for which the binding result in experiment [1] was “no binding”. Further, in experiment [2], the “EC50 (nM), ADCC on THP-1 cells” value worked out at 1.43 nM and the “Max cell cytotoxicity (%), ADCC on THP-1 cells” value turned out to be 0.43%. Also, the “ADCP (%) at 133.3 nM, macrophages and MV-4-11 cells” value in experiment [3] turned out to be 3.12%. Further, in experiment [4], the “FcγR stimulation (TNF-α, pg/mL)” value is 126 pg/mL and the “Fold change (Compared to isotype)” value amounted to 3.97 fold. In addition, the binding result in experiment [5] is reported as “no binding (tested: up to 66.67 nM)”. Moreover, in experiment [6], the response was half-maximal at 0.57 nM (EC50) and the “Max MFI” value stood at 5470 MFI. Besides, the EC50 in experiment [7] amounted to 103 nM.

B2: h2-H1-D7-E5-D5 (antibody, V domains shown)
VH: EVQLVESGGGLVQPGGSLRLSCAASGFTFSSFGMHWVRQAPGKGLEWVAYISSGSSSIYYADTVKGRFTISRDNAKNSLYLQMNSLRAEDTAVYYCARGTGTGAMDYWGQGTLVTVSS
VL: DIQMTQSPSSLSASVGDRVTITCRTSQDISNYLNWYQQKPGKAPKLLIYYTSKLHSGVPSRFSGSGSGTDFTFTISSLQPEDIATYFCQQGNTLPWTFGGGTKLEIK
notes: humanized antibody of ch2-H1-D7-E5-D5; also called humanized 2-H1-D7-E5-D5
Turning to B2, the binding result in experiment [8] is “binds”.
